Measured values as given in patent US12099068B2, “Biomarkers for graft-versus-host disease” (Incyte Corporation, priority 2018, dated 2024).

B1: TIGAR (protein, UniProt Q9NQ88 1-270, looked up)
Fructose-2,6-bisphosphatase …: MARFALTVVRHGETRFNKEKIIQGQGVDEPLSETGFKQAAAAGIFLNNVKFTHAFSSDLMRTKQTMHGILERSKFCKDMTVKYDSRLRERKYGVVEGKALSELRAMAKAAREECPVFTPPGGETLDQVKMRGIDFFEFLCQLILKEADQKEQFSQGSPSNCLETSLAEIFPLGKNHSSKVNSDSGIPGLAASVLVVSHGAYMRSLFDYFLTDLKCSLPATLSRSELMSVTPNTGMSLFIINFEEGREVKPTVQCICMNLQDHLNGLTETR
B2: NUB1 (protein, UniProt Q9Y5A7 1-615, looked up)
NEDD8 ultimate buster 1: MAQKKYLQAKLTQFLREDRIQLWKPPYTDENKKVGLALKDLAKQYSDRLECCENEVEKVIEEIRCKAIERGTGNDNYRTTGIATIEVFLPPRLKKDRKNLLETRLHITGRELRSKIAETFGLQENYIKIVINKKQLQLGKTLEEQGVAHNVKAMVLELKQSEEDARKNFQLEEEEQNEAKLKEKQIQRTKRGLEILAKRAAETVVDPEMTPYLDIANQTGRSIRIPPSERKALMLAMGYHEKGRAFLKRKEYGIALPCLLDADKYFCECCRELLDTVDNYAVLQLDIVWCYFRLEQLECLDDAEKKLNLAQKCFKNCYGENHQRLVHIKGNCGKEKVLFLRLYLLQGIRNYHSGNDVEAYEYLNKARQLFKELYIDPSKVDNLLQLGFTAQEARLGLRACDGNVDHAATHITNRREELAQIRKEEKEKKRRRLENIRFLKGMGYSTHAAQQVLHAASGNLDEALKILLSNPQMWWLNDSNPETDNRQESPSQENIDRLVYMGFDALVAEAALRVFRGNVQLAAQTLAHNGGSLPPELPLSPEDSLSPPATSPSDSAGTSSASTDEDMETEAVNEILEDIPEHEEDYLDSTLEDEEIIIAEYLSYVENRKSATKKN
B3: SNAP23 (protein, UniProt O00161 1-211, looked up)
Synaptosomal-associated …: MDNLSSEEIQQRAHQITDESLESTRRILGLAIESQDAGIKTITMLDEQKEQLNRIEEGLDQINKDMRETEKTLTELNKCCGLCVCPCNRTKNFESGKAYKTTWGDGGENSPCNVVSKQPGPVTNGQLQQPTTGAASGGYIKRITNDAREDEMEENLTQVGSILGNLKDMALNIGNEIDAQNPQIKRITDKADTNRDRIDIANARAKKLIDS
B4: KLK10 (protein, UniProt O43240 31-276, looked up)
Kallikrein-10: AEAALLPQNDTRLDPEAYGSPCARGSQPWQVSLFNGLSFHCAGVLVDQSWVLTAAHCGNKPLWARVGDDHLLLLQGEQLRRTTRSVVHPKYHQGSGPILPRRTDEHDLMLLKLARPVVLGPRVRALQLPYRCAQPGDQCQVAGWGTTAARRVKYNKGLTCSSITILSPKECEVFYPGVVTNNMICAGLDRGQDPCQSDSGGPLVCDETLQGILSWGVYPCGSAQHPAVYTQICKYMSWINKVIRSN
B5: FAM3C (protein, UniProt Q92520 25-227, looked up)
Protein FAM3C: QVFEIKMDASLGNLFARSALDTAARSTKPPRYKCGISKACPEKHFAFKMASGAANVVGPKICLEDNVLMSGVKNNVGRGINVALANGKTGEVLDTKYFDMWGGDVAPFIEFLKAIQDGTIVLMGTYDDGATKLNDEARRLIADLGSTSITNLGFRDNWVFCGGKGIKTKSPFEQHIKNNKDTNKYEGWPEVVEMEGCIPQKQD
B6: AGR2 (protein, UniProt O95994 21-175, looked up)
Anterior gradient protein 2 …: RDTTVKPGAKKDTKDSRPKLPQTLSRGWGDQLIWTQTYEEALYKSKTSNKPLMIIHHLDECPHSQALKKVFAENKEIQKLAEQFVLLNLVYETTDKHLSPDGQYVPRIMFVDPSLTVRADITGRYSNRLYAYEPADTALLLDNMKKALKLLKTEL
B7: STAMPB (protein, UniProt O95630 1-424, looked up)
STAM-binding protein: MSDHGDVSLPPEDRVRALSQLGSAVEVNEDIPPRRYFRSGVEIIRMASIYSEEGNIEHAFILYNKYITLFIEKLPKHRDYKSAVIPEKKDTVKKLKEIAFPKAEELKAELLKRYTKEYTEYNEEKKKEAEELARNMAIQQELEKEKQRVAQQKQQQLEQEQFHAFEEMIRNQELEKERLKIVQEFGKVDPGLGGPLVPDLEKPSLDVFPTLTVSSIQPSDCHTTVRPAKPPVVDRSLKPGALSNSESIPTIDGLRHVVVPGRLCPQFLQLASANTARGVETCGILCGKLMRNEFTITHVLIPKQSAGSDYCNTENEEELFLIQDQQGLITLGWIHTHPTQTAFLSSVDLHTHCSYQMMLPESVAIVCSPKFQETGFFKLTDHGLEEISSCRQKGFHPHSKDPPLFCSCSHVTVVDRAVTITDLR
B8: LAT2 (protein, UniProt Q9GZY6 1-243, looked up)
Linker for activation of …: MSSGTELLWPGAALLVLLGVAASLCVRCSRPGAKRSEKIYQQRSLREDQQSFTGSRTYSLVGQAWPGPLADMAPTRKDKLLQFYPSLEDPASSRYQNFSKGSRHGSEEAYIDPIAMEYYNWGRFSKPPEDDDANSYENVLICKQKTTETGAQQEGIGGLCRGDLSLSLALKTGPTSGLCPSASPEEDEESEDYQNSASIHQWRESRKVMGQLQREASPGPVGSPDEEDGEPDYVNGEVAATEA

Tested on: plasma proteins
Test: Plasma proteins modulated between baseline and day 28 in responders (CR, VGPR, PR; n = 19), Example 6 (Table 13)
Assay type: in vivo, human
Details: plasma protein (OLINK NPX); responders (CR, VGPR, PR; n = 19); itacitinib 200 mg or 300 mg QD with corticosteroids; day 28 vs baseline
Procedure, shortened: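 Longitudinal comparison, day 28 versus baseline, with steroid-naive (N=10) and steroid-refractory (N=18) patients combined. Proteins measured by OLINK proximity extension, log2 normalized protein expression. Differences tested by t tests, ANOVA, Pearson correlation, P<0.05 significant.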

First: B1
Second: B2
The “Fold Change, Decreased Expression from Baseline to Day 28” value (shortened to “Fold Change, Decreased Expression”) of the first is higher: −1.3733 for the first, −1.4966 for the second.

Going from B3 to B7, the “Fold Change, Decreased Expression” value rises from −1.5751 to −1.3721.

For B8, the “Fold Change, Decreased Expression” value was −1.7755.

Compared with B4, B5 is higher in “Fold Change, Increased Expression from Baseline to Day 28” value: 1.2102 for the first, 1.3109 for the second.

B6 was tested, and the “Fold Change, Increased Expression from Baseline to Day 28” value was 1.4472.
